Test: soluble on expression in E. coli; label from the status in PepcDB or PDB records

Sequence | soluble on expression in E. coli
MRDTFPSLQAQHLHGIDEQALRPAFSTHKPRILILYGSLREVSYSRLLAFEAGRLLERLGCEVRIFDPKGLPLPDETPASHAKVQELRDLSQWSEGQVWVSPERHGAMTGIMKSQIDWIPLAVGSVRPTQGKTLAVMEVSGGSQSFNAVNQMRILGRWMRMITIPNQSSVARAFQEFDEDGRMRPSSYYDRVVDVCEELVKFTLLTRDASAYLTDRYSERKEQAAELEKRVSLKS | not soluble
MSDVTVVNCPTCGKPVVWGEISPFRPFCSKRCQLIDLGEWAAEEKRIASSGDQSDSDDWSEER | not soluble
MSLHISVMGELDSKADVDRLLESIDENCDCEIHLTFLDANVVPREIVEKIVKLKEHNKCKIFVLKAYLYSYFLSLGISCFLVKKKSILNKDFESKEKLSSQTFEPEKVEKFLWDIYDKYGFDFTEYRKDSIIRRIKISMLRYCMTNFDEFSHLALTDQDVFEQLFLDFSINTTNFFRDPEVFMFLREKVLLFLDSYSHIRIWCVGCSNGKEPYSLAIILKELGMLHKVQIYATDINPYVIEEAKNGLYSVSTINTDIANYKKSGGSKNFTDYFEVNGNYMKVKDDFKDNILFFQHSVIEKGILNEFQMILCRNVMIYFDIPLQKKVLRHFYNSLDSGGFLVMGKSEGMLLNNGYEYFADYNEKYSVYRRKEGHHHHHH | soluble
DRSVIYPSEYFFLKGGNAFWRFGDSMEAAFQTLPPYTATADKHLILQTSYRASRLLVNFLPFVFLKTNDEALHFKARWDMVSRKPYLEMGYSES | not soluble
MAHHHHHHMSSHQILITAPEVYSKRFAQALEARSLIPMAVPVIETIATPDTADMRALLEQDLNGIDYIAFCSRCAVDSLSAALDHRYGGGGESVSERAGSAPAVNEDRRATAVVKVLAKCALAAIGKDADYVFERLRIRTTICPDEPSPAGIAAKLAESGRAEGRTIAVLAPCVEGFTEPDVVPRFVDQLKGMGMKVVRVDAYMTRPVSEEAVSAAVTALKNGSVRGVAFTSAGEIAVLLRRSPQCLMNIDVACFGPYTAGFAAKHGVKVSCVAKDFRSFDGFAATIEQHYASR | soluble
MSDPYMPLTSVRSGAGFEAAKGVHGLTVQIANVYFIQLPSEPHSFVLIDAGMPQSAGVIVNEAKQRFGEGFQLKAIILTHGHFDHIGAIEEILEHWDVPVYIHSREMPYVTGKEDYPPARPDSKSGLVAKLSPLFPRHSIDISSHVQALPEDGSVPFLDEWMWIATPGHTPGHISLFRDDGRVLVAGDAVITVEQEKMADVLIQKQELHGPPAYFTPDTETAAESILKLAGLEPEALLTGHGIPMTGKNFRSDLTELANRLSSILEHHHHHH | soluble
MLEVDVVRISVIVPIYNVKLYIERCVRSLMEQTLENIEFIFVNDCTPDDSMDILHYVLEEYPKRREQIKIIEHETNRGISAVRNTGLKNATGQYIIYCDSDDWVEKNMYEKLLVKALETSADIVGCDFFDDYVAHSTIRKQLFPQQSEKCVKKMLRGELHCGTWNKLVIKSLYERTKIDFPEGINMWEDVSTIIPLCFHATKIDYIPEALYHYIHHNVSSYTYSVTEKSLENLVASIQLLESFFLTNQCFKTFGEDLCFMKLTVKLNLLLGSKGELQKKRNMLYSSANRYIFSYSGMSWYWKIALWVASKKMLFCFNVMSCIERIIKKWKLEHHHHHH | not soluble
MGSSHHHHHHSSGLVPRGSHMHSVVQSVTDRIIARSKASREAYLAALNDARNHGVHRSSLSCGNLAHGFAACNPDDKNALRQLTKANIGIITAFNDMLSAHQPYETYPDLLKKACQEVGSVAQVAGGVPAMCDGVTQGQPGMELSLLSREVIAMATAVGLSHNMFDGALLLGICDKIVPGLLIGALSFGHLPMLFVPAGPMKSGIPNKEKARIRQQFAQGKVDRAQLLEAEAQSYHSAGTCTFYGTANSNQLMLEVMGLQLPGSSFVNPDDPLREALNKMAAKQVCRLTELGTQYSPIGEVVNEKSIVNGIVALLATGGSTNLTMHIVAAARAAGIIVNWDDFSELSDAVPLLARVYPNGHADINHFHAAGGMAFLIKELLDAGLLHEDVNTVAGYGLRRYTQEPKLLDGELRWVDGPTVSLDTEVLTSVATPFQNNGGLKLLKGNLGRAVIKVSAVQPQHRVVEAPAVVIDDQNKLDALFKSGALDRDCVVVVKGQGPKANGMPELHKLTPLLGSLQDKGFKVALMTDGRMSGASGKVPAAIHLTPEAIDGGLIAKVQDGDLIRVDALTGELSLLVSDTELATRTATEIDLRHSRYGMGRELFGVLRSNLSSPETGARSTSAIDELY | soluble
MCDCLSIILLVKMKKIYLKFVDFWDGFDTISNFIVDALSIQYEVVLSNEPDYLFYSCFGTSHLEYDCIKIMFIGENIVPDFNVCDYAIGFNYIDFGDRYLRLPLYAIYDGFSNLQNKKIDVNKALDRKFCSIVVSNNKWADPIRETFFKLLSSYKKVDSGGRAWNNIGGPVDNKLDFISQYKFNIAFENSRVLGYTTEKIMEPMQVNSIPVYWGNPLVGKDFNVDSFVNAHDFDSLERLVEYIIELDSSKDKYLEMLEKPWLLDKTYLDWKQLLLNFINNIMMKSYKDAKYLVNYGHAGKYRNEQRFWGRCERKFKLQRIIEYYSQLFDRKLEHHHHHH | not soluble
MGSDKIHHHHHHMSRAITRAQLDKLVRSITKFYPQKYADKSWDNTGLLIDCSTAQVTTADANAKTKVLLTVDLTKSVAQEAVDANCNVIVAYHPFIFPSWNRLSPHTNPQHETAIKLIQYGISVYCPHTAVDAARGGVNDWLVRGLNNGENVAKSYALETVSGETDDLIGYGRFVEFNKDISLEQIVKNVKRVLRVPYVQVASLAAPSAWNQLKIKKVAVCAGSGSGVFKQLKEDVDLYYTGEMSHHEVLKWKEMGKTVIVCNHSNTERGFLQDVMKGLLQDEGHEVVVSKMDCDPLTVA | not soluble
ISFEINGIKITTYPPPFRIFLEIDNKQEFEKLDRIRKNVDVVVLGFPVGHYDLDEVKNKVKQLVDYGYVVGIDAESPRELKEGVRAGASFVFNLNENNFEELEEIRKEAAFVVAPFNTENRGEITIDLVKKAKQKGFDKLIADPVLSPPLRGLVSSIIGYKYVRETLQDIPILMGILNVTELIDADSIGMNALLTAIAGELGISNLLIMEKGKTRWSSWEVSQATKMISVALKENRLPKDIGIDLLVLKDKRRFRESFNADVIVNRRIEPEMDNTGFAKIFVSEDGFGVEWIGKNKITIKGKDGLSIGRELIRRVKDISKEHAVYIGYELAKAEIAYQLDKNYIQDKPLF | not soluble
MKAEGLSGGYGDSRLINNVSLTVEKGEFLGILGPNGSGKTTLLHLLTGTLPAKKGRVYLAGKLLADYKPKELAQIMAVLPQKMDQAFTFTVEETVAFGRYPFQTGLFRQQTEKGEAIVQEAMEQTGVADFAQKPIRELSGGEQQRVYLAQALAQQPRILFLDEPTNFLDLAYQKDLLDLIKRLTRESGLAAVSVFHDLNTASLYCDGLMFMKNGTAGPKQKPEYAVTEQSIKAVYDTDVTALVHQSSPKPMIVIQPEKDSVKRQSIPFEALLQAGRDDILLQTEIPLRTLSSTPIGAGFSWSRTLIHKRLPDQPDPIEGLTACLSESGFQLQETCAMASSERLDRFVYRTYEDGELSVFICVQTGFSIWILINGYAADQFFIKALMAAEAERTKVLGDGGGTGDILIAATQTQQSENIEQRLNQLIKKGTAECIKEAAELF | not soluble
MPSPMSTLTTYSEPRGSTTYTLPAMEPSVSRLDTDMNSGLMPRYIFLTPLDSITLLASSGTLLEKPGQDIQRSSPTDSTSHSTRFIGGAPMKVATNVCFGLM | not soluble
MLIAITGTPGVGKTTVAKLLAKKLNYEYVSLKDFALEKGCGRRVNDEVEVEIDELAYFIERELKGKNAVLDGHLSHLMPVDLVVVLRAHPKLIGERLRERGYDREKIGENVEAELVDAVLIEAIEEHENVIEVDTTNKSPEDVVEEIVSLINSGIKKRVGIVDWSEVYDEIIPYLRLGGELEHHHHHH | soluble
MGSDKIHHHHHHMFEKRHRITLLFNANKAYDRQVVEGVGEYLQASQLEWDIFIEEDFRARIENIKEWLGDGVIADYDDPEIEKLLADVHVPIVGVGGSYHQPEQYPPVHYIATDNAALVESAFLHLKEKGVHRFAFYGLPASSGKRWAVEREYAFCQLVAKEKYRGVVYQGLETAPENWQHAQNRLADWLQTLPPQTGIIAVTDARARHVLQACELLHIPVPEKLCVIGIDNEELTRYLSRVALSSVAQGTRQMGYQAAKLLHRLLNNEALPLQRQLIPPMRVVERRSTDYRSLNDPSVIQAMHYIRNNACKGIKVEQVLDAVGISRSNLEKRFKEEVGETIHTVIHSEKLEKARSLLVSTSLSINEISQMCGYPSLQYFYSVFKKEYDVTPKEYRDRHSEVML | not soluble
MAHHHHHHMWRQLMCSYSSKEKLGSKIYTQKKITKREKLLGIVKPFVDENCDSAEPYVIAYYLNNPINLATLKSAYEKVGSQVLYKDPYLYVESCSHFNQQNSSAVFFKNGCMVIWSMNKQNRNKFFHFSKQFLHINSESTIDHYDFEELQVENISNKSYVNNSVIYLTSSNYRTTDKIAISFGLLSAVRLNNLEKKIEKKLFYENDQIENLKKKMKSSNLDHLSKQLFTSKITLHNLRYELNIDQDILDVPEALWELEYQKKLFLNILHIFDIKQRVDLLNHRLSWTLDYLNSFLDYVNQKHSSRLERIIIVIVGLELVLGIMQMGNTIGL | not soluble
LMPTERIDINEREDCTASEMTAPTVPVALVTGAAKRLGRSIAEGLHAEGYAVCLHYHRSAAEANALSATLNARRPNSAITVQADLSNVATAPVSGADGSAPVTLFTRCAELVAACYTHWGRCDVLVNNASSFYPTPLLRNDEDGHEPCVGDREAMETATADLFGSNAIAPYFLIKAFAHRVAGTPAKHRGTNYSIINMVDAMTNQPLLGYTIYTMAKGALEGLTRSAALELAPLQIRVNGVGPGLSVLVDDMPPAVWEGHRSKVPLYQRDSSAAEVSDVVIFLCSSKAKYITGTCVKVDGGYSLTRA | soluble
MLIRQAGPADNAQLLDFQQRHAMRGSMPLRFDRSPDYFALHHCHAADHRTWIAQSPEGELRGSASLVVRDGYLQGSAEPIAYLGDLRLMPDRRLSRSWMAEVQTRLADLSLQTGAQHAYCCIIRDNPLAIQSLLGRRRANPLKLAHWRGYSNVSVYGQRGLSSAPRTHAGVRVVRAEPRHLDALRAFLDSESSRQSFGCVFSETEFERRISHWPDFAIGSFLLAVDERENLLGCVAPWDAGKIKRIVVEQMPVAQQLLRMGYNAVAPLAGRPGIASPGNPLRDIYLTHLQVRQRDPEVFAALLDVAWAQVRKDYSLMQLCLYDQDPLWLAMRRYRSVSLPMDLYTAPCGSNTPVFTETCAAGVPGFEIYLV | not soluble
MEKDAQAGEPEEEEVDDELSSTDLYEDSMAEVTLNETRGGHDSDPFDRSGEYDEDVDLAAPPPITPDIPEIPADVLISLKNRAEGTAIDLKNLKNPFDDSQKVDESEVEAPLK | soluble
NLNSIQNFGAIDILCTDKTGTLTQDKVVLEYHLNVNGEDDTRVLRHAYLNSYFQTGYKNLMDLAIIHKTEEEEAADSRLIDLSENYVKVDEIPFDFTRRRLTTVVQDNKGKTQMVTKGAVEEMLSICAFAECNGGVQPLTDDVRYRILETVDNLNDKGFRVLAIAQKSNPSPIGAFGVKDECDMVLIGYLAFLDP | not soluble
MNISLSRVHFPVTTLGPGQRLGLWFQGCSIRCAGCISADTWGPGKHPLPLAQVLDDLQPWLARAEGITLSGGEPFDQPEALLALLRGLRERTGVDILVYSGHSLETLQPLLQQAEGLLDALICDPFEQQQAQTLVLRGSDNQRLIFLTELGRQRLSTYQRPLHHEDRALDVMFDDDGSVWMAGIPRRDDVLRLRDLLHDQGHQLQISAHTSRRRLEHHHHHH | not soluble
